Publication PMC3518043

Target: Histone H3 N-terminal peptide trimethylated at lysine-4 (celluspot peptide #1)
Experiment: peptide or protein array

Chain of GST-tagged CHD5 PHD2 finger (413-468) (Q8TDI0 413-468): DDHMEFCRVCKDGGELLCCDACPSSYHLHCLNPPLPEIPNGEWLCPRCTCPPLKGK
Chain of GST-tagged CHD5 PHD1 finger (338-393) (Q8TDI0 338-393): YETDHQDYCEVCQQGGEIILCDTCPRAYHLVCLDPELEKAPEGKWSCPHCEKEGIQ

| decrease in signal against unmodified H3 [%] | Substance |
| --- | --- |
| > 90 | GST-tagged CHD5 PHD2 finger (413-468) (from UniProt Q8TDI0 413-468) (domain or fragment) |
| > 90 | GST-tagged CHD5 PHD1 finger (338-393) (from UniProt Q8TDI0 338-393) (domain or fragment) |
